Laboratory results: FireProtDB
Values joined by “and” are separate entries in the source; they are usually repeats but may differ in a detail not shown here. Equal values may be shown once.

Settings: for Tm / change of melting temperature, mutant - wild type (higher = more stable) / heat capacity change of unfolding / unfolding enthalpy (van 't Hoff) / unfolding enthalpy (calorimetric): Thermal
[1] = Homo sapiens, pH 5, 25 °C, Urea, CD, sodium acetate 50 mM, structure 1TTG
[2] = Homo sapiens, pH 7.5, CD, Tris-HCl, NaCl, structure 1DXX
[3] = Homo sapiens, DSC, 1 X - PBS, Mg2+ 0.5 mM, structure 1AJE
[4] = Escherichia coli, pH 7, CD, phosphate 50 mM, reversible: yes
[5] = Bos taurus, pH 4.4, DSC, Sodium acetate 25 mM, NaCl 100 mM, reversible: yes
[6] = Bos taurus, pH 4.8, DSC, Sodium acetate 25 mM, NaCl 100 mM, reversible: yes
[7] = Bos taurus, pH 5.3, DSC, Sodium acetate 25 mM, NaCl 100 mM, reversible: yes
[8] = Bos taurus, pH 7.55, DSC, Tris 0.09 M, reversible: yes
[9] = Bos taurus, pH 8, DSC, Sodium acetate 25 mM, NaCl 100 mM, reversible: yes
[10] = Equus caballus, pH 6, 20 °C, GdnHCl, CD, MES 10 mM, NaCl 0.4 M, reversible: yes
[11] = Equus caballus, pH 7, 10 °C, GdnHCl, CD, sodium phosphate 0.1 M, reversible: yes
[12] = Equus caballus, pH 7, 10 °C, GdnHCl, Fluorescence, acetate/phosphate 50 mM/50 mM/
[13] = Equus caballus, pH 7, 22 °C, GdnHCl, Fluorescence, sodium phosphate 0.1 M, reversible: yes
[14] = Equus caballus, pH 7, 23 °C, GdnHCl, SAXS, Phosphate 100 mM, transition: 2
[15] = Equus caballus, pH 7, 25 °C, GdnHCl, DSC, cacodylic acid 0.03 M, NaCl 0.1 M, reversible: yes
[16] = Equus caballus, pH 12.7, 22 °C, GdnHCl, Fluorescence, NaOH, reversible: yes
[17] = Thermotoga maritima (strain ATCC 43589 / DSM 3109 / JCM 10099 / NBRC 100826 / MSB8), pH 6.5, 25 °C, GdnHCl, Fluorescence, sodium phosphate 50 mM, NaCl 20 mM, reversible: yes
[18] = Homo sapiens, pH 5, 25 °C, Urea, Fluorescence, Sodium acetate 50 mM, reversible: yes, structure 1TEN
[19] = Homo sapiens, pH 7.6, CD, Sodium phosphate 20 mM, NaCl 0.1 M, reversible: no, structure 1OWA
[20] = Homo sapiens, pH 7.4, 25 °C, GdnHCl, CD, PBS, structure 1TIT
[21] = Salmo salar, pH 7.1, CD, HEPES 10 mM, NaCl MgCl2 30 mM 3mM
[22] = Homo sapiens, pH 7.5, Differential Scanning Fluorimetry, PBS, transition: 2, structure 1DXX
[23] = Bos taurus, pH 8, 30 °C, GdnHCl, CD, borate 10 mM, structure 1BP2
[24] = Rattus norvegicus, pH 8, 25 °C, Urea, Fluorescence, Tris-HCl 50 mM, MgCl2 4 mM, transition: 3, reversible: yes, structure 1QM4
[25] = Bos taurus, pH 8, DSC, HEPES 50mM, NaCl 150mM, structure 1IHG
[26] = Homo sapiens, pH 7, CD, Phosphate 100 mM, NaCl 150 mM, structure 1DXX
[27] = Homo sapiens, pH 7.3, 25 °C, GdnHCl, Fluorescence, Na2HPO4/NaH2PO4 20 mM, structure 1TIT
[28] = Bos taurus, pH 8, DSC, HEPES 50mM, NaCl 150mM
[29] = Homo sapiens, pH 2.4, CD, glycine hydrochloride 20 mM, NaCl 1 M, reversible: yes, structure 1TTG
[30] = Homo sapiens, pH 7, CD, sodium phosphate 20 mM, NaCl 0.1 M, reversible: yes, structure 1TTG
[31] = Homo sapiens, pH 7, CD, sodium phosphate 20 mM, NaCl 1 M, reversible: yes, structure 1TTG

Chain of Fibronectin D1544K, P02751 (P02751 whole entry D1544K): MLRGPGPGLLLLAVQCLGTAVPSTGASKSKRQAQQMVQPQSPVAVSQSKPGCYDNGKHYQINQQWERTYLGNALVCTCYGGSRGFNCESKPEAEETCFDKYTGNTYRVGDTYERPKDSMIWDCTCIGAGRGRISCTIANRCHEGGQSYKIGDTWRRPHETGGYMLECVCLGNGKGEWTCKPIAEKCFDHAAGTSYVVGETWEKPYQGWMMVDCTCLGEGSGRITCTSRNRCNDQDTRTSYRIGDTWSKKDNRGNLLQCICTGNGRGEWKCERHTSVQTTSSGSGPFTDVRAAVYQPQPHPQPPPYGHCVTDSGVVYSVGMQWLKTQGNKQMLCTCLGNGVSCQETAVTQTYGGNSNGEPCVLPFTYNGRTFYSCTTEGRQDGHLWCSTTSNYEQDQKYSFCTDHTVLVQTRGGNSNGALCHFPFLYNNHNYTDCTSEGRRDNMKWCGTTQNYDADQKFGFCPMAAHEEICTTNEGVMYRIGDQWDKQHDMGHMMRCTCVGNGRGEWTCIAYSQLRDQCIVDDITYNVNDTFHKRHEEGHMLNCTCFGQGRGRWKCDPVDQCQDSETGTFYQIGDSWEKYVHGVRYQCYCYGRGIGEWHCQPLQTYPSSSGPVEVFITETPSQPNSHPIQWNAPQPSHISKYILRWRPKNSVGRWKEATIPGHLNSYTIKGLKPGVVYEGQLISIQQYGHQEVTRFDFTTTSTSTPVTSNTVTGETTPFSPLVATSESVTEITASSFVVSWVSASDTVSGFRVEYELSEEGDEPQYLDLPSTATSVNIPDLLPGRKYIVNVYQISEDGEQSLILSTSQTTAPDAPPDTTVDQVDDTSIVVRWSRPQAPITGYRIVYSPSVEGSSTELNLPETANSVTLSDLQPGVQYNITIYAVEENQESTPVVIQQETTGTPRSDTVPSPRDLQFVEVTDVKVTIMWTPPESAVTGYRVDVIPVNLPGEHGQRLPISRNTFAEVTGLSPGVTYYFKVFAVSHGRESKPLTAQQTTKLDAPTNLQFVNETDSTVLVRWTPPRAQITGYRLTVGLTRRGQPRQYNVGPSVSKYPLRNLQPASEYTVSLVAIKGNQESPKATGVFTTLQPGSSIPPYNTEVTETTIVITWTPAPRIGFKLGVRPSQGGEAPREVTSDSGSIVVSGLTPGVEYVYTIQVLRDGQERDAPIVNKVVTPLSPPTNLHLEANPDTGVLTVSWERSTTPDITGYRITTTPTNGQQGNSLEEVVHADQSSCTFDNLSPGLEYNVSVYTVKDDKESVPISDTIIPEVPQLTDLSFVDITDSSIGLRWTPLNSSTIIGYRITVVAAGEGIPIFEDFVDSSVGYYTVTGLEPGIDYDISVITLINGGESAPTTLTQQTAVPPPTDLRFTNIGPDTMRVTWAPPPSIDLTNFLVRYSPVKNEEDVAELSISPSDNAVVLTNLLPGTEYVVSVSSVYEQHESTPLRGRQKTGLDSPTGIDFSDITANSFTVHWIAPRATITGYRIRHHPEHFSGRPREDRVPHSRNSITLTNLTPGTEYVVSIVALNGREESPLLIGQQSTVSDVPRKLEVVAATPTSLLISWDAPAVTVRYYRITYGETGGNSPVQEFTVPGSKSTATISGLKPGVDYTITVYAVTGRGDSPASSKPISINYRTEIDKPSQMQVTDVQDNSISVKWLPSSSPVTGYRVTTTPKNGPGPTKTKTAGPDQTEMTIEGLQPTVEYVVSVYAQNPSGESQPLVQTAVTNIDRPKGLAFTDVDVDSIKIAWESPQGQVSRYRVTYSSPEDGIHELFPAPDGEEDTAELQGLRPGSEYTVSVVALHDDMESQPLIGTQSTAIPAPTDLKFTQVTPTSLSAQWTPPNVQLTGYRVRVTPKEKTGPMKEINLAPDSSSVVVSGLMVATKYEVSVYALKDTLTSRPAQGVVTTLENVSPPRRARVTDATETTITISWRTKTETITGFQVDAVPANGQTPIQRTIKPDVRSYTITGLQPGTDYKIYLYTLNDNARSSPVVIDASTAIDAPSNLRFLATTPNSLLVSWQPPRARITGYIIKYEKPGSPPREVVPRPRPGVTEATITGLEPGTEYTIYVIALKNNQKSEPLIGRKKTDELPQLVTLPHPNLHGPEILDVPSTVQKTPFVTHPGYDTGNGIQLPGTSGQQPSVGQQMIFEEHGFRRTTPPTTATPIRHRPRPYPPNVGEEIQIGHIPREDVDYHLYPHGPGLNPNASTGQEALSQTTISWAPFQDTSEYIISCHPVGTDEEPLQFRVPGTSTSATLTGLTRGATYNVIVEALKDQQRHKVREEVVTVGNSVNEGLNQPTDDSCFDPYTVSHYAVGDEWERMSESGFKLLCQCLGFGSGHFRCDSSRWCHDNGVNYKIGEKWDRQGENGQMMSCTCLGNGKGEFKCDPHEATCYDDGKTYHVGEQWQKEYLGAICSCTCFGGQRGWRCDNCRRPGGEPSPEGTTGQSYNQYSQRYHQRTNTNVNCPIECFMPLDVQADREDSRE
Chain of Carbonic anhydrase 2 wild type, P00921 (P00921 whole entry): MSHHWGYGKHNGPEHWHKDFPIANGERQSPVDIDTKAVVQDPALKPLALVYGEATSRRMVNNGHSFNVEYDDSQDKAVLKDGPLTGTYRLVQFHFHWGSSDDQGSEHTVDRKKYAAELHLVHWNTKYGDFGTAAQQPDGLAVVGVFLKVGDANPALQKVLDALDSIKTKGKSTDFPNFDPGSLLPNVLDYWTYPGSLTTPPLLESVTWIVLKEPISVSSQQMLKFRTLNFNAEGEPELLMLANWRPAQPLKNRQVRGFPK
Chain of Endo-1,4-beta-xylanase wild type, Q59962 (Q59962 entry or part of it): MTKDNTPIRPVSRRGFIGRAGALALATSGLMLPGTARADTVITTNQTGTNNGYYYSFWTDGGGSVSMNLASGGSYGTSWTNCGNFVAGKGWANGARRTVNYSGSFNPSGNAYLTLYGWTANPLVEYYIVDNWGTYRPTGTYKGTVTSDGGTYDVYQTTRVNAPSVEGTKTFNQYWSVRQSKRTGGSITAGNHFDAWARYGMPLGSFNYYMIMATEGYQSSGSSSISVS
Chain of Cytochrome c wild type, P00004 (P00004 whole entry): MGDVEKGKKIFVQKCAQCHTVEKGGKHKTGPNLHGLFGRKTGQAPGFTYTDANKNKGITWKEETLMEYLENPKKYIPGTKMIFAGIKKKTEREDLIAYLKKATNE
Chain of S-adenosylmethionine synthase isoform type-1 R265H, P13444 (P13444 whole entry R265H, canonical isoform): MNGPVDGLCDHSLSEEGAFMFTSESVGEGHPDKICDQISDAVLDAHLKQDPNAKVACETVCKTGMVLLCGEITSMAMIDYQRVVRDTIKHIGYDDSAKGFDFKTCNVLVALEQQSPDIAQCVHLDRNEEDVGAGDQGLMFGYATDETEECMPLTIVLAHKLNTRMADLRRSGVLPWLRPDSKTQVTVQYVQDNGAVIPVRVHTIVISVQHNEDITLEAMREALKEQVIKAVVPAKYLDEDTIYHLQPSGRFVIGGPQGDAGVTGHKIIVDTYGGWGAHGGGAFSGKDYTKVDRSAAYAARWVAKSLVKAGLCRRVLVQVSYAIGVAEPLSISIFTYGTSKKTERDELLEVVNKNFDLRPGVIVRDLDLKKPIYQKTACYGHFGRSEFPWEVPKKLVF
Chain of Peptidyl-prolyl cis-trans isomerase D K227A, P26882 (P26882 whole entry K227A): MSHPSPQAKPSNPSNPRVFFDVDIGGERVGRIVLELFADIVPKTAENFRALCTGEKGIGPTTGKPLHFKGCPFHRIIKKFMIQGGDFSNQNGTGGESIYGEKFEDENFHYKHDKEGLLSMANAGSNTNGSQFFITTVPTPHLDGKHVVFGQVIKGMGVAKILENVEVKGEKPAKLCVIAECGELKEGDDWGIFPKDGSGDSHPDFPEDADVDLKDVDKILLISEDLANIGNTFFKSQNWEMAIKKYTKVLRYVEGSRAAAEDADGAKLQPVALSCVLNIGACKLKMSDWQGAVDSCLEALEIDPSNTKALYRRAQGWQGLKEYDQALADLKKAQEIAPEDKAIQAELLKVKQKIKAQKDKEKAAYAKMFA
Chain of Cell division control protein 42 homolog T35A, P60953 (P60953 whole entry T35A): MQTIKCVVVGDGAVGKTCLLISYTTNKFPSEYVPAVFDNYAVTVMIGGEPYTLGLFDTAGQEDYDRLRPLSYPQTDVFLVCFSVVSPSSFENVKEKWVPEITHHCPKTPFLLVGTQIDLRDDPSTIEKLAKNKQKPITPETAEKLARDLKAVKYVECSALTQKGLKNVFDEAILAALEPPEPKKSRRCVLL
Chain of Creatine kinase B-type wild type, P00567 (P00567 whole entry): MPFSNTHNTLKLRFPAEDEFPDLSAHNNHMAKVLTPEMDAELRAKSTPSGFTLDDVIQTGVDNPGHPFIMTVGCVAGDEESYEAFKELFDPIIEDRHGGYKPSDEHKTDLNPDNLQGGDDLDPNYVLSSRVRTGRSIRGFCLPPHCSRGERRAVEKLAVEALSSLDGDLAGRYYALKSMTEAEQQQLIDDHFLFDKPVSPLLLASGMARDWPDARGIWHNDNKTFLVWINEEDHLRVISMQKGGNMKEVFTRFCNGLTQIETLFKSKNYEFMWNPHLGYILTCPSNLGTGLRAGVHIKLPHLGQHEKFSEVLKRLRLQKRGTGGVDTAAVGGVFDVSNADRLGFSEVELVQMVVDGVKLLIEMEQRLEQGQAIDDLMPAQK
Chain of Tropomyosin alpha-1 chain G27A, Q91472 (Q91472 entry or part of it G27A | G27A): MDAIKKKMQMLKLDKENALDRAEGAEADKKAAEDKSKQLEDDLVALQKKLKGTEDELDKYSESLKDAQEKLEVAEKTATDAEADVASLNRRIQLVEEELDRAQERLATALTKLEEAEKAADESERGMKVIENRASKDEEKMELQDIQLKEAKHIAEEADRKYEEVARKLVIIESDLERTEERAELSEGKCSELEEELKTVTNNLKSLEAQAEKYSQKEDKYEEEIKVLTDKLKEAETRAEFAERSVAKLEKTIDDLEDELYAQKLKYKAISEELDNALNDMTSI
Chain of Cold shock-like protein wild type, O54310 (O54310 whole entry): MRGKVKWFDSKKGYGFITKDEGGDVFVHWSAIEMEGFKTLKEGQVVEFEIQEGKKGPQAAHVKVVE

With Fibronectin Y1605F, P02751 the “ddG of mutation (higher = less stable)” value (Homo sapiens, pH 5, 25 °C, Urea, Fluorescence, Sodium acetate 50 mM, reversible: yes, structure 1TTG) was -2.03 kcal/mol.

In the case of Twitchin, Q23551 Y4220F, the “ddG of mutation (higher = less stable)” value (Caenorhabditis elegans, pH 7, 20 °C, Urea, Fluorescence, Sodium phosphate 50 mM, reversible: yes, structure 1WIT) is reported as -2.15 kcal/mol.

In the case of Fibronectin P1619A, P02751, the “ddG of mutation (higher = less stable)” value [1] is reported as 0.42 kcal/mol.

Dystrophin, P11532 C10S C188S gave a Tm (Homo sapiens, pH 7, CD, NaH2PO4, NaCl, reversible: no, structure 1DXX) of 61 °C, a Tm (Homo sapiens, pH 7, Fluorescence, NaH2PO4, NaCl, reversible: no, structure 1DXX) of 62.4 °C and an unfolding free energy (Homo sapiens, pH 7, Urea, CD, NaH2PO4, NaCl, reversible: yes, structure 1DXX) of 9.81 kcal/mol. The unfolding free energy (Homo sapiens, pH 7, Urea, Fluorescence, NaH2PO4, NaCl, reversible: yes, structure 1DXX) was 12.8 kcal/mol.

With Dystrophin, P11532 L427P the Tm [2] was 50 °C and the “change of melting temperature, mutant - wild type (higher = more stable)” value (from here on “change of melting temperature, mutant”) [2] was -3.4 °C.

With “Cell division control protein 42 homolog T35A, P60953” the Tm [3] was 64.2 °C and the “change of melting temperature, mutant” value [3] was 0.7 °C.

For “Soluble cytochrome b562 wild type, P0ABE7”, the unfolding free energy (Escherichia coli, pH 7, 20 °C, Urea, CD, Potassium phosphate 50 mM, reversible: yes) was 6.6 kcal/mol and 3.2 kcal/mol, the “heat capacity change of unfolding” value [4] was 2.4 kcal/mol/K and 1.1 kcal/mol/K and the “unfolding enthalpy (van 't Hoff)” value [4] was 94 kcal/mol and 53 kcal/mol.

With Carbonic anhydrase 2 wild type, P00921 the Tm [5] was 39 °C, the “heat capacity change of unfolding” value [5] was 4 kcal/mol/K and the Tm [6] was 48 °C. For the same substance, the “heat capacity change of unfolding” value [6] was 4 kcal/mol/K, the Tm [7] was 56 °C and the “heat capacity change of unfolding” value [7] was 4 kcal/mol/K. The Tm [8] was 62.5 °C, the “heat capacity change of unfolding” value [8] was 3.9 kcal/mol/K and the Tm [9] was 64 °C. The “heat capacity change of unfolding” value [9] was 3.8 kcal/mol/K and the “unfolding enthalpy (calorimetric)” value [9] was 190 kcal/mol.

With Cytochrome c wild type, P00004 the unfolding free energy (Equus caballus, pH 1.7, 20 °C, HCl, CD, HCl 9 mM) was 3.3 kcal/mol, the unfolding free energy (Equus caballus, pH 4.9, 10 °C, GdnHCl, Fluorescence, sodium acetate 0.2 M) was 8.2 kcal/mol and the denaturant m value [10] was 1.61 kcal/mol/M. For the same substance, the “denaturant midpoint (higher = more stable)” value (“denaturant midpoint” below) [10] was 1.27 M, the unfolding free energy [10] was 2.04 kcal/mol and the unfolding free energy (Equus caballus, pH 6.5, 25 °C, GdnHCl, CD, HCl 0.1 M, reversible: yes) was 12.7 kcal/mol. The denaturant m value [11] was 3.8 kcal/mol/M and 3.2 kcal/mol/M, the unfolding free energy [11] was 20.4 kcal/mol and 12.1 kcal/mol and the denaturant m value [12] was 3.9 kcal/mol/M. For the same substance, the “denaturant midpoint” value [12] was 2.67 M, the unfolding free energy [12] was 10.4 kcal/mol and the unfolding free energy (Equus caballus, pH 7, 21 °C, GdnHCl, Absorbance, phosphate 10 mM) was 8.5 kcal/mol. The unfolding free energy (Equus caballus, pH 7, 21 °C, GdnHCl, CD, phosphate 10 mM) was 8.4 kcal/mol, the unfolding free energy (Equus caballus, pH 7, 21 °C, GdnHCl, Fluorescence, phosphate 10 mM) was 7.4 kcal/mol and the “denaturant midpoint” value [13] was 5 M. For the same substance, the unfolding free energy [13] was 18 kcal/mol, the denaturant m value [14] was 4.1 kcal/mol/M and 2.5 kcal/mol/M and the unfolding free energy [14] was 10.7 kcal/mol and 7.2 kcal/mol. The unfolding free energy (Equus caballus, pH 7, 25 °C, GdnHCl, Absorbance, cacodylate 0.03 M, KCl 0.1 M, reversible: yes) was 8.7 kcal/mol, the denaturant m value [15] was 2 kcal/mol/M and the “denaturant midpoint” value [15] was 2.54 M. For the same substance, the unfolding free energy [15] was 6 kcal/mol, the unfolding free energy (Equus caballus, pH 7, 25 °C, SDS, CD, Phosphate 50 mM) was 3.59 kcal/mol and the “denaturant midpoint” value [16] was 2.6 M. The unfolding free energy [16] was 3 kcal/mol.

“Cold shock-like protein wild type, O54310” showed a denaturant m value [17] of 1.34 kcal/mol/M and an unfolding free energy [17] of 3.35 kcal/mol.

In the case of Tenascin, P24821 Y869F, the “ddG of mutation (higher = less stable)” value [18] is reported as -3.22 kcal/mol.

With “Spectrin alpha chain, erythrocytic 1, P02549 A2023V” the Tm [19] was 60.5 °C and the “change of melting temperature, mutant” value [19] was -2 °C.

With Titin V12689A, Q8WZ42 the “ddG of mutation (higher = less stable)” value [20] was 2.37 kcal/mol.

With “Tropomyosin alpha-1 chain G24A|G27A, Q91472 G24A G27A” the Tm [21] was 38.1 °C and the “change of melting temperature, mutant” value [21] was 1.1 °C.

For “Endo-1,4-beta-xylanase wild type, Q59962”, the “unfolding enthalpy (calorimetric)” value (Streptomyces sp. S38, pH 7.5, DSC, MOPS 20 mM, NaCl 100 mM, reversible: No) was 108 kcal/mol and 125 kcal/mol and 127 kcal/mol.

In the case of Dystrophin, P11532 L172H, the Tm [22] is reported as 42.1 °C and the “change of melting temperature, mutant” value [22] is reported as -1.28 °C.

For “Phospholipase A2, major isoenzyme wild type, P00592”, the unfolding free energy (Sus scrofa, pH 7, 20 °C, GdnHCl, Absorbance, Tris 5 mM, reversible: yes) was 0 kcal/mol.

In the case of Phospholipase A2 H70Q, P00593, the “ddG of mutation (higher = less stable)” value [23] is reported as 0.6 kcal/mol, the denaturant m value [23] is reported as 1.34 kcal/mol/M and the “denaturant midpoint” value [23] is reported as 6.6 M. The unfolding free energy [23] was 8.9 kcal/mol.

With “Phospholipase A2, major isoenzyme N111D, P00592” the unfolding free energy (Sus scrofa, pH 7, 20 °C, GdnHCl, Absorbance, Tris 5 mM, reversible: yes, structure 1P2P) was 0.19 kcal/mol.

With Titin F12749L, Q8WZ42 the “ddG of mutation (higher = less stable)” value [20] was 3.06 kcal/mol.

With “S-adenosylmethionine synthase isoform type-1 R265H, P13444” the denaturant m value [24] was 1.15 kcal/mol/M, the “denaturant midpoint” value [24] was 3.82 M and the unfolding free energy [24] was 4.41 kcal/mol.

For “Peptidyl-prolyl cis-trans isomerase D K227A, P26882”, the Tm [25] was 45.2 °C, the “change of melting temperature, mutant” value [25] was 0.12 °C and the “unfolding enthalpy (calorimetric)” value [25] was 159 kcal/mol.

For “Cell division control protein 42 homolog wild type, P60953”, the Tm (Homo sapiens, DSC, 1 X - PBS, Mg2+ 0.5 mM) was 63.5 °C.

For Tropomyosin alpha-1 chain G27A, Q91472, the Tm [21] was 37.3 °C and the “change of melting temperature, mutant” value [21] was 0.3 °C.

For “S-adenosylmethionine synthase isoform type-1 wild type, P13444”, the unfolding free energy (Rattus norvegicus, pH 8, 25 °C, Urea, Fluorescence, Tris-HCl 50 mM, MgCl2 4 mM, transition: 3, reversible: yes) was 6.12 kcal/mol and 4.41 kcal/mol.

With Dystrophin, P11532 Y231N the Tm [26] was 43 °C and the “change of melting temperature, mutant” value [26] was -15 °C.

With Soluble cytochrome b562 A62G, P0ABE7 the “ddG of mutation (higher = less stable)” value (Escherichia coli, pH 5, 25 °C, Urea, Fluorescence, NaAc 50 mM, structure 6BQG) was 0.57 kcal/mol.

In the case of MKLWFSTLKLKKAA [wild type], the Tm (Bacillus licheniformis, pH 5, Fluorescence, Sodium acetate 50 mM, reversible: no) is reported as 65 °C, the Tm (Bacillus licheniformis, pH 6, Fluorescence, Sodium phosphate 50 mM) is reported as 64.7 °C and the “unfolding enthalpy (van 't Hoff)” value (Bacillus licheniformis, pH 7, Fluorescence, Sodium phosphate 50 mM, reversible: yes) is reported as 99.9 kcal/mol and 112 kcal/mol and 164 kcal/mol. It also gave a Tm (Bacillus licheniformis, pH 9, Fluorescence, Sodium pyrophosphate 50 mM, reversible: yes) of 56.5 °C.

For Fibronectin P1624A, P02751, the “ddG of mutation (higher = less stable)” value [1] was 0.21 kcal/mol.

For Titin V12762A, Q8WZ42, the “ddG of mutation (higher = less stable)” value [20] was 4.78 kcal/mol.

In the case of “Titin C12723S|C12739S, Q8WZ42 C12723S C12739S”, the “ddG of mutation (higher = less stable)” value [27] is reported as -3.2 kcal/mol and the denaturant m value [27] is reported as 2.8 kcal/mol/M.

In the case of Phospholipase A2 H70A, P00593, the “ddG of mutation (higher = less stable)” value [23] is reported as 3.1 kcal/mol, the denaturant m value [23] is reported as 1.02 kcal/mol/M and the “denaturant midpoint” value [23] is reported as 6.3 M. The unfolding free energy [23] was 6.4 kcal/mol.

For “Peptidyl-prolyl cis-trans isomerase D wild type, P26882”, the Tm [28] was 45.1 °C and the “unfolding enthalpy (calorimetric)” value [28] was 165 kcal/mol.

In the case of Tenascin, P24821 Y869A, the “ddG of mutation (higher = less stable)” value [18] is reported as -1.88 kcal/mol.

Fibronectin D1544N, P02751 showed a Tm [29] of 82 °C, a Tm [30] of 69 °C and a Tm [31] of 80 °C.

In the case of “Creatine kinase B-type wild type, P00567”, the unfolding free energy (Oryctolagus cuniculus, pH 7.4, 22 °C, GdnHCl, CD, Sodium phosphate 100 mM) is reported as 6.94 kcal/mol and the Tm (Oryctolagus cuniculus, pH 8, DSC, HEPES-NaOH 30 mM, reversible: no) is reported as 55.9 °C.

With Titin L12736A, Q8WZ42 the “ddG of mutation (higher = less stable)” value [20] was 5.27 kcal/mol.

With “Creatine kinase M-type wild type, P00563” the Tm (Oryctolagus cuniculus, pH 8, DSC, Hepes-NaOH 30 mM, NaCl 0.1 M, reversible: No) was 53.7 °C and 53.8 °C.

Fibronectin D1544K, P02751 gave a Tm (Homo sapiens, pH 2.4, CD, glycine hydrochloride 20 mM, NaCl 0.1 M, reversible: yes, structure 1TTG) of 69 °C, a Tm [29] of 77 °C and a Tm [30] of 70 °C. The Tm [31] was 78 °C.
